Results taken from article doi:10.1101/2021.03.08.434344 (bioRxiv, 2021).

Target: the molecule itself
Experiment: cryo-EM structure

B1: Homo sapiens ferritin (apoferritin) (natural protein, human, UniProt Q8TD27 1-165, looked up)
chain: MTTASTSQVRQNYHQDSEAAINRQINLELYASYVYLSMSYYFDRDDVALKNFAKYFLHQSHEEREHAEKLMKLQNQRGGRIFLQDIKKPDCDDWESGLNAMECALHLEKNVNQSLLEFPSPISPSPSCWHHYTTNRPQPQHHLLRPRRRKRPHSIPTPILIFRSP
  binding result: binds
